Experimental data published in article PMC2120133 (The Journal of Cell Biology, 1994).

Target: Gal4 DNA-binding domain-Nup1p carboxy-terminal fusion (pSWB11) (yeast, UniProt P20676 655-1076)
Assay: two-hybrid

Sequence of Gal4 DNA-binding domain-Nup1p carboxy-terminal fusion (pSWB11) (P20676 655-1076): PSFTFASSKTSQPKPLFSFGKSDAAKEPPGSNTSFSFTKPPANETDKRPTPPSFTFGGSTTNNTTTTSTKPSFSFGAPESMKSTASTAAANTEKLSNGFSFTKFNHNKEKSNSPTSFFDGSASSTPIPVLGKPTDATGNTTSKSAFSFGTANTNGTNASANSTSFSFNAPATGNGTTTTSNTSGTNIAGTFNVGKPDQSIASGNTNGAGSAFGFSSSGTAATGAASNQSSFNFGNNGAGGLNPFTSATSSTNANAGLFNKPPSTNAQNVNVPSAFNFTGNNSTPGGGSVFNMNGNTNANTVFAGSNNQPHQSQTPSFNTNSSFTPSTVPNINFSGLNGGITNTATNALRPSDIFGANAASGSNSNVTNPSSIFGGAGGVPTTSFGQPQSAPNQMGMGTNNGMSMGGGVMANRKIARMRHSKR

B1: Gal4 activation domain-Srp1p fusion (pSWB17) (domain or fragment, yeast, UniProt Q02821 30-542, looked up)
chain: DELRRRRDTQQVELRKAKRDEALAKRRNFIPPTDGADSDEEDESSVSADQQFYSQLQQELPQMTQQLNSDDMQEQLSATVKFRQILSREHRPPIDVVIQAGVVPRLVEFMRENQPEMLQLEAAWALTNIASGTSAQTKVVVDADAVPLFIQLLYTGSVEVKEQAIWALGNVAGDSTDYRDYVLQCNAMEPILGLFNSNKPSLIRTATWTLSNLCRGKKPQPDWSVVSQALPTLAKLIYSMDTETLVDACWAISYLSDGPQEAIQAVIDVRIPKRLVELLSHESTLVQTPALRAVGNIVTGNDLQTQVVINAGVLPALRLLLSSPKENIKKEACWTISNITAGNTEQIQAVIDANLIPPLVKLLEVAEYKTKKEACWAISNASSGGLQRPDIIRYLVSQGCIKPLCDLLEIADNRIIEVTLDALENILKMGEADKEARGLNINENADFIEKAGGMEKIFNCQQNENDKIYEKAYKIIETYFGEEEDAVDETMAPQNAGNTFGFGSNVNQQFNFN
fold increase in beta-galactosidase activity: > 160 fold
